# Patent US20200199216A1 (KINDRED BIOSCIENCES, published 2020)
# Key:
# [1] = target: T1, canine IL17A (as used at 1 nM in the H1080 cell assay) (canine); assay: cell-based or functional assay
# T1 chain: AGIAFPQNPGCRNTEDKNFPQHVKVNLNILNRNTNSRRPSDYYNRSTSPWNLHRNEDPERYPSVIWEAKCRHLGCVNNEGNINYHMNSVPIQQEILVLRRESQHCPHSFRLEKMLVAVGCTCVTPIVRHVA
# [2] = target: T2, canine IL17A-huFc (canine); assay: BLI (Octet); canine IL17A-huFc captured on anti-human Fc sensors, antibody at 10 µg/mL
# T2 construct: also called canine IL17A-hFc; not shown: human Fc on the C-terminal
# T2 chain: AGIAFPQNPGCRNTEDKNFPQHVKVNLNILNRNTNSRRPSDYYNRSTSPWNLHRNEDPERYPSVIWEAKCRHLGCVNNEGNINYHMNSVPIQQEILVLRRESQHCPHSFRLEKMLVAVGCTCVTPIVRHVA
# Method: Briefly, antibody concentrations were measured by protein A assay using Biosensor Octet (Forte Bio). Canine IL17A-huFc was captured to anti-human Fc bound biosensors. The association of anti-IL17A antibody from clones A, C, D, and E to the canine IL17A-huFc was monitored for 90 seconds. Dissociation was monitored for 600 seconds. A buffer only blank curve was subtracted to correct for any drift. The data were fit to a 1:1 binding model using ForteBio™ data analysis software to determine the kon, koff, and the Kd. The buffer for dilutions and all binding steps was: 20 mM phosphate, 150 mM NaCl, pH 7.2.
# [3] = target: T3, canine IL17A-polyHis (canine, biotinylated (EZ-Link NHS-LC-biotin) in the biosensor assays); assay: BLI (Octet); biotinylated canine IL17A-polyHis on streptavidin sensors, antibody 0-220 nM, 1:1 model
# T3 construct: also called biotinylated canine IL17A-polyHis; not shown: poly-His tag on the C-terminal
# T3 chain: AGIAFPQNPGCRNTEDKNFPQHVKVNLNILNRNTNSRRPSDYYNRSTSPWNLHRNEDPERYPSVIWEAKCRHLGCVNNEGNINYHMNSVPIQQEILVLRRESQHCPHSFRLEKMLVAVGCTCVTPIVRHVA
# Method: The binding analysis was performed using a Biosensor Octet as follows. Briefly, canine IL17A-polyHis, which was expressed and purified from CHO-S cells, was biotinylated using EZ-Link NHS-LC-biotin (Catalog No. 21336, Thermo Scientific). Free, unreacted biotin was removed from biotinylated IL17A by dialysis. Biotinylated canine IL17A was captured on streptavidin sensor tips (Catalog No. 18-509, ForteBio). The association of different concentrations (0 nM, 18.33 nM, 45.87 nM, 110 nM, 220 nM) of hybridoma Clone C or caninized Clone C antibody to canine IL17A was monitored for 90 seconds. Dissociation was monitored for 600 seconds. A buffer only blank curve was subtracted to correct for any drift. The data were fit to a 1:1 binding model using ForteBio™ data analysis software to determine the kₒₙ, koff, and the Kd. The buffer for dilutions and all binding steps was: 20 mM phosphate, 150 mM NaCl, pH 7.2.
# [4] = target: T2, canine IL17A-huFc; assay: ELISA; canine IL17A-huFc captured on anti-human Fc, detection goat anti-mouse Fc-HRP
# Method: Binding affinity of monoclonal antibodies A, B, C, D, and E to canine IL17A-huFc polypeptide was analyzed by ELISA. In the binding ELISA performed, the wells were coated with anti-human Fc antibody. Canine IL17A-huFc protein was then added to the wells. Antibody purified from each of the five hybridoma clones was added to the wells at various concentrations (19.35 nM, 6.45 nM, 2.15 nM, 0.75 nM, 0.24 nM, 0.08 nM, 0.03 nM, and 0 nM). Goat anti-mouse Fc-HRP was added and color was developed. […] Table 3 below provides the EC50 values associated with the binding ELISA for each of the clones.
# [5] = target: T4, equine IL17A-polyHis (equine, biotinylated in the biosensor assay); assay: BLI (Octet); biotinylated equine IL17A-polyHis on streptavidin sensors, antibody 20 µg/mL; BLI (Octet), biotinylated equine IL17A-polyHis on streptavidin sensor, antibody 20 µg/mL
# T4 construct: not shown: poly-His tag on the C-terminal
# T4 chain: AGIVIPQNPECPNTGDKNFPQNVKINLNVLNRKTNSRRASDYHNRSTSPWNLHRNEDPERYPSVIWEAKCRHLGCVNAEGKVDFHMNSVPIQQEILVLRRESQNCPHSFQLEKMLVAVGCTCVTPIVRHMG
# Method: The binding analysis was performed using a Biosensor Octet as follows. Both feline IL17A-polyHis and equine IL17A-polyHis were biotinylated and immobilized to streptavidin biosensors. The association of monoclonal antibody Clones A, C, D, and E (20 μg/mL) to either feline or […] IL17A-polyHis was monitored for 90 seconds. Dissociation was monitored for 600 seconds. A buffer only blank curve was subtracted to correct for any drift. The data were fit to a 1:1 binding model using ForteBio™ data analysis software to determine the kₒₙ, koff, and the Kd. The buffer for dilutions and all binding steps was: 20 mM phosphate, 150 mM NaCl, pH 7.2. […] Weak binding signals of Clone A to feline IL17A and Clone C to feline IL17A were observed.
# [6] = target: T5, canine IL17A-hFc-polyHis Mutant 3 (Q103R); assay: Western blot of 3-fold concentrated 293 supernatants, 25 µL per lane, SDS-PAGE with or without DTT, PVDF, probed with Clone C
# T5 IL17A-hFc-polyHis fusion chain: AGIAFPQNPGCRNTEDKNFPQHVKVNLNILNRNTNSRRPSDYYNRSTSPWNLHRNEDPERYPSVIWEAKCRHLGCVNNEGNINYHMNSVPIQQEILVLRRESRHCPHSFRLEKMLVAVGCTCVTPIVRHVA
# Method: (§1) Plasmid constructs containing nucleotide sequences encoding each of the canine IL17A-hFC-polyHis mutants were transiently transfected into 293 cells and the supernatants concentrated 3-fold. Each mutant was separated by SDS-PAGE (25 μL per lane) in the presence or absence of DTT and the proteins transferred to a PVDF membrane. The blot was probed using either Clone C antibody or anti-human IgG Fc (control).
# [7] = target: T6, canine IL17A-hFc-polyHis Mutant 5 (C-terminal deletion of amino acids 126-131); assay: as above
# T6 IL17A-hFc-polyHis fusion chain: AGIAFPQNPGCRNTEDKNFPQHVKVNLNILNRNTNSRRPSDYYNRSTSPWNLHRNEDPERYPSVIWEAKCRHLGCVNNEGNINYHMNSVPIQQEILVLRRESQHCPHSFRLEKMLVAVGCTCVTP
# Method: as §1
# [8] = target: T7, canine IL17A-hFc-polyHis Mutant 1 (R71L, L73W, I82T) (canine); assay: as above
# T7 construct: Tested as 3-fold concentrated supernatant of transfected 293 cells; not shown: human Fc; poly-His tag
# T7 chain: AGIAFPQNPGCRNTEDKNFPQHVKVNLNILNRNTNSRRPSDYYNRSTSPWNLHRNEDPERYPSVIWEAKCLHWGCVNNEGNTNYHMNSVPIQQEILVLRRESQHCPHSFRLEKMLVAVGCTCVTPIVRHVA
# Method: as §1
binder,measurement,setting,value
"mouse monoclonal antibody Clone C (antibody, mouse IgG1, V domains shown, Hybridoma antibody; also called hybridoma Clone C) VH: EVQLVESGGGLVQPGGSLKLSCAASGFTFSSYGMSWVRQTPDKRLELVAIINSNGGSTYYPDSVKGRFTISRDNDKNSLYLQMSSLKSEDTAMYYCVRCHYDYERVFDYWGQGTTLTVSS VL: DIQMTQSSSYLSVSLGGRVTITCKANDHINNWLAWYQQKPGNAPRLLISGSTSLETGVPSRFSGSGSGKDYTLSITSLQTEDVATYYCQQYWSTPFTFGSGTKLEIK","EC50 (ng/mL), H1080 Cell Functional Assay (IL6 secretion)",[1],7 ng/mL
same,Kd,[2],< 10 nM
same,Kd,[3],7.9 nM
same,EC50,[4],0.2 ng/mL
same,Kd,[5],0.13 nM
same,binding result,[6],binds
same,binding result,[7],binds
same,binding result,[8],binds
